Assay results reported in paper PMC5674885 (The Journal of Cell Biology, 2017).

Molecular target: T1, kindlin-2 (recombinant, full length, amino acids 1–680) (mouse, UniProt Q8CIB5 1-680)
T1 sequence (looked up): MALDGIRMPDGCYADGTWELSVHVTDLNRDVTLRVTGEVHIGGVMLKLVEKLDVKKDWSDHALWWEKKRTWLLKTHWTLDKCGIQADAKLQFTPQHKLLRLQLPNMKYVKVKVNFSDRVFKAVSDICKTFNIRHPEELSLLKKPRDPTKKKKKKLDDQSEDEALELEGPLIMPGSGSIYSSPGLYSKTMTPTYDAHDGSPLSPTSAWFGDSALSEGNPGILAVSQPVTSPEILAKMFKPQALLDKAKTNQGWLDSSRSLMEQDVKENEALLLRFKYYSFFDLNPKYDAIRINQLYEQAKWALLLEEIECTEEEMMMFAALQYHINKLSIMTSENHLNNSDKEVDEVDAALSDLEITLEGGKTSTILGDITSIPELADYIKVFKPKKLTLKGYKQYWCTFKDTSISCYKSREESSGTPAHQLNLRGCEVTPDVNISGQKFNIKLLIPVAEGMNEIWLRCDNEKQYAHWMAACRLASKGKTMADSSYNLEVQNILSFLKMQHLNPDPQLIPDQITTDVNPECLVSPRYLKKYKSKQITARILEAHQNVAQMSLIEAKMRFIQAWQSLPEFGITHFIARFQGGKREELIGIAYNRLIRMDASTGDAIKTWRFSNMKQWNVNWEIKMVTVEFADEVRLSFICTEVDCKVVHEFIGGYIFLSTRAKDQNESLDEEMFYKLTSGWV
Assay: ITC

Kd: 205 ± 59 nM
B1: paxillin (recombinant, full length, amino acids 1–557) (natural protein)
chain: not shown
modifications: Atto520 label (NHS ester) in the ultracentrifugation of Fig. 1 B only
